Test results reported in US20080182247A1.

Molecular target: CD70 (human) (UniProt P32970)
Assay: cell-based or functional assay

Sequence of CD70 (human) (P32970 whole entry): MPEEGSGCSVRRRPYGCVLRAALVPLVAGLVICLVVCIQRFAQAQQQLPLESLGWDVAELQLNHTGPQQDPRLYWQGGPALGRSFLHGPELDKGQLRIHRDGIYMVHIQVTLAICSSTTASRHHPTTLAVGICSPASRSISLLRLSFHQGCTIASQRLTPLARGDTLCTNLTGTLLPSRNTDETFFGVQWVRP

- IgG synthesis by purified B cells stimulated with LPS (control without T cells): 125 µg/mL
Substance: anti-CD70 monoclonal antibody (HNE51) (DAKO)
